In patent publication US20250339569A1 (3B PHARMACEUTICALS, published 2025):
Starred links: 1 amine or outer side, 2 acyl side, 3 side chain; linkers in the order of their positions; H or OH if unused. Positions of bridges follow the written chain, without caps; N, C: chain ends. Non-standard residues stand in square brackets, D forms with d. Primed or numbered codes have the meaning given here. *: point of attachment. Aph(SaPr)″ = 4-amino-L-phenylalanine, ring amine acylated with 3-sulfamoylpropanoic acid, NS(=O)(=O)CCC(=O)Nc1ccc(C[C@H](N[*:1])C(=O)[*:2])cc1; Ttds(4) = 1,13-diamino-4,7,10-trioxatridecan-succinamic acid spacer, O=C(CCC(=O)[*:2])NCCCOCCOCCOCCCN[*:1]; Af3(Btda) = 3-amino-L-phenylalanine, ring amine acylated by benzothiadiazine-7-carboxylic acid; PPAc(3) = 4-carboxymethyl piperazine linker between DOTA and Gln1, O=C(CN1CCN([*:1])CC1)[*:2]; Phe(3-NHCO(CH2)3SO2NH2) = N[C@@H](Cc1cccc(NC(=O)CCCS(N)(=O)=O)c1)C(=O)O; APAc″ = 2-(4-(amino)piperidin-1-yl)acetic acid, NC1CCN(CC(=O)*)CC1; DOTA = O=C(O)CN1CCN(CC(=O)O)CCN(CC(=O)*)CCN(CC(=O)O)CC1; Biotin = O=C1N[C@H]2[C@H](CS[C@H]2CCCCC(=O)*)N1; mXylylene = c1cc(C[*:1])cc(C[*:2])c1; APAc = not defined here; Dap = NC[C@H](N)C(=O)O

How the values were obtained:
[1] = target: T1, human carbonic anhydrase 9 (CAIX) (human, UniProt Q16790 38-459); assay: FACS binding assay on CAIX-expressing HT-29 cells, biotinylated compound detected with APC-streptavidin; pEC50 category (A = pEC50 >8.0)
Procedure: (§1) CAIX-expressing human HT-29 colorectal cancer cells (DSMZ, RRID: CVCL_0320) were cultured in McCoys's 5A modified medium (Biochrom, #F1015) including 10% fetal calf serum (FCS), 2 mM L-glutamine, 100 U/ml penicillin and 100 μg/mL streptomycin. Cells were detached with Accutase (Biolegend, #423201) and washed in FACS buffer (PBS including 1% FCS). Cells were diluted in FACS buffer to a final concentration of 500.000 cells per ml. 200 μL of the cell suspension were transferred to a u-shaped non-binding 96-well plate (Greiner) and cells were washed in ice-cold FACS buffer.
(§2) When biotinylated compounds were used an additional incubation step with 1 μg/mL APC-Streptavidin (Miltenyi; #130-106-791) in 50 μL FACS buffer for 30 minutes on ice was performed.
(§3) Cells were washed twice with ice-cold FACS buffer and analyzed in an Attune NxT flow cytometer (Thermo Fisher). Median fluorescence intensities (MFI) of the APC/Cy5-channel were calculated by Attune NxT software.

[2] = target: T2, canine carbonic anhydrase 9 (CAIX) (dog); assay: radioligand saturation binding on CHO cells with dog CAIX, 8 h at 37 C
T2 construct: also called dog CAIX; dgCAIX
T2 sequence (chain, as listed by the source limits assumed): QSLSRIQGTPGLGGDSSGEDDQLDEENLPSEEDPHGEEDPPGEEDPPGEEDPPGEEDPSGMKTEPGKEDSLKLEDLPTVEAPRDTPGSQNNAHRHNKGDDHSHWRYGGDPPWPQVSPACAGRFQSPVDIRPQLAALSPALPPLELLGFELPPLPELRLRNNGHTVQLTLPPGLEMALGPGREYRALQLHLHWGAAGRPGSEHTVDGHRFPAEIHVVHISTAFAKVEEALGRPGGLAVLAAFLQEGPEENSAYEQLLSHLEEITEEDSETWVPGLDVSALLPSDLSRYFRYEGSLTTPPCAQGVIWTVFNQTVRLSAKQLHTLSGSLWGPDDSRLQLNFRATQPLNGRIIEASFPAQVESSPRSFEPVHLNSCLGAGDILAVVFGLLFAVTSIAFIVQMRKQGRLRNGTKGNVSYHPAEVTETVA
Procedure: The radioligand saturation binding on CHO-huCAIX and dgCAIX was determined as follows. […] To determine total binding, 700 μL of binding medium and 100 μL of the radioligand dilutions were added to the wells in triplicates. […] The plates were incubated for 8 h at 37° C. under standard cell culture conditions (5% CO2). At the end of the incubation time the plates were placed on ice while aspirating the radioligand solutions. Aliquots of the 20 nM supernatants were transferred to HPLC vials for analysis of radioligand stability over the incubation time. Subsequently, the cells were washed with ice-cold PBS (0.5 mL, 1 mL, 1 mL). 300 μL of RIPA buffer containing PIC was added to each well and the plates were placed on a shaker for 10 min at ambient temperature. 200 μL of the cell lysate of each well was transferred to gamma-counting tubes. Their associated radioactivity was counted using a gamma counter and normalized to the measured protein concentration of each well (see chapter 6.3.7 BCA protein assay). An aliquot of each radioligand dilution was included in the gamma counter measurements to allow for determination of the actual radioligand concentrations in the dilution series.

[3] = target: T3, Fc-fusion protein of human carbonic anhydrase IX (human, UniProt Q16790 38-414); assay: SPR, CAIX; pKD category A: >8.0
Procedure: Stock solutions of test compounds were prepared by dissolving each compound in DMSO. DMSO stock solution were diluted 1:1000 in Running Buffer without DMSO. […] SPR binding analyses were performed in Single Cycle Kinetic (SCK) mode at 25° C.
(§4) For each test compound, SPR raw data in the form of resonance units (RU) were plotted as sensorgrams using the Biacore™ T200 control software. The signal from the blank sensorgram was subtracted from that of the test compound sensorgram (blank corrected). The blank corrected sensorgram was corrected for baseline drift by subtracting the sensorgram of a SCK run without the test compound (running buffer only). […] Raw data and fit results were imported as text files in IDBS. The pKD value (negative decadic logarithm of dissociation constant) was calculated in the IDBS excel template.

[4] = target: T4, human carbonic anhydrase IV (CAIV), biotinylated (human, UniProt P22748 19-283, limits assumed, biotinylated); assay: SPR, biotinylated CAIV captured (Biotin CAPture)
T4 construct: Bought (SinoBiological, Cat # printed 10472-1H081H); also called hCAIV-bio
T4 sequence (P22748 19-283 limits assumed): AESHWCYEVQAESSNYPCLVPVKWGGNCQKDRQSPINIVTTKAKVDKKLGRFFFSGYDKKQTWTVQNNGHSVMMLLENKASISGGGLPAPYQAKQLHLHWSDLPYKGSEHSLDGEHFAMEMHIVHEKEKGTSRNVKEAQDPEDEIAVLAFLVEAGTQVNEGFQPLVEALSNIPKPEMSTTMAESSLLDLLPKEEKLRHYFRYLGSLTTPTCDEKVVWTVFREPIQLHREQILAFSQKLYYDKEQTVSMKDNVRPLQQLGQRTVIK
Description: as §4

[5] = target: T5, human carbonic anhydrase XII (CAXII), biotinylated (human, UniProt O43570 25-301, biotinylated); assay: SPR, biotinylated CAXII captured (Biotin CAPture)
T5 construct: Bought (SinoBiological Cat #10617-H08H); also called hCAXII-bio
T5 sequence (O43570 25-301 limits assumed): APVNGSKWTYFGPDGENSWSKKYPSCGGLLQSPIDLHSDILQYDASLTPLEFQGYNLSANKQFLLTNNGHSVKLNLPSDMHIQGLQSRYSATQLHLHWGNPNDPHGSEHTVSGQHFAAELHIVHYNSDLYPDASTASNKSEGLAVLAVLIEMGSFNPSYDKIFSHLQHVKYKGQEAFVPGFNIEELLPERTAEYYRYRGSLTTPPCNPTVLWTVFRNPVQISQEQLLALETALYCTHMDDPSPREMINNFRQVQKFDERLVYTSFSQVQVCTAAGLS
Description: as §4

[6] = target: T3, Fc-fusion protein of human carbonic …; assay: SPR, captured hCAIX-Fc; t1/2 category A: >15.0 min
[7] = target: T6, human carbonic anhydrase XIV (CAXIV), biotinylated (human, UniProt Q9ULX7 16-290, biotinylated); assay: SPR, biotinylated CAXIV captured (Biotin CAPture)
T6 construct: Bought (SinoBiological Cat #10458-H08H); also called hCAXIV-bio
T6 sequence (Q9ULX7 16-290 limits assumed): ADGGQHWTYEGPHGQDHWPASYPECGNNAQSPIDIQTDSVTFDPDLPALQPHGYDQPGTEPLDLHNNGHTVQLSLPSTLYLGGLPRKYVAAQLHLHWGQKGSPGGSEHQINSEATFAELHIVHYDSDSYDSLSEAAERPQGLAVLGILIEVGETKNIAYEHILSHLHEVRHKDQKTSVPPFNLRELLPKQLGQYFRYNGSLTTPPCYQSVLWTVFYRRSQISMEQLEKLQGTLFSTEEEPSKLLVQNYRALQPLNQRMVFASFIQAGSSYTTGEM
Description: as §4

[8] = target: T7, human carbonic anhydrase IX (CAIX) (human, UniProt Q16790 38-459); assay: FACS competition, HT-29 cells, tracer 3BP-2776; pIC50 category A: >8.0
Procedure: as §1, §2, §3

[9] = target: T3, Fc-fusion protein of human carbonic …; assay: SPR, captured hCAIX-Fc; pKD category A: >8.0
[10] = target: T7, human carbonic anhydrase IX (CAIX); assay: FACS competition, HT-29 cells, tracer 3BP-4149; pIC50 category C: 6.1-7.0
Procedure: as §1, §2, §3

[11] = target: Human carbonic anhydrase IX Fc-fusion protein (CAIX, Sino Biological, 10107-H02H) (human, UniProt Q16790 38-414); assay: SPR (Biacore T200), CAIX-Fc captured by anti-human Fc antibody, peptide as analyte, single cycle kinetics, 25 C, 1:1 Langmuir fit
Procedure: Surface Plasmon Resonance (SPR) studies were performed on a Biacore™ T200 using a ligand capture approach. Basically, anti-human Fc antibodies were immobilized on the surface of a sensor chip and CAIX was captured on the functionalized surface via its Fc Tag.

[12] = target: T1, human carbonic anhydrase 9 (CAIX); assay: FACS binding assay on CAIX-expressing HT-29 cells, biotinylated compound detected with APC-streptavidin; pEC50 category (B = pEC50 between 7.1 and 8.0)
Procedure: as §1, §2, §3

B1: 3BP-2777: H-Met-Val-Tyr-[Cys(3MeBn)-Glu-Gly-Ser-Trp-Leu-Gly-Trp-Ser-Cys]-Ttds-Lys(Bio)-NH2 (peptide)
peptide: H-MVYCEGSWLGWSC[Ttds(4)]K(Biotin)-NH2
modifications: linker 4-13 via mXylylene
SMILES: CSCC[C@H](N)C(=O)N[C@H](C(=O)N[C@@H](Cc1ccc(O)cc1)C(=O)N[C@H]1CSCc2cccc(c2)CSC[C@@H](C(=O)NCCCOCCOCCOCCCNC(=O)CCC(=O)N[C@@H](CCCCNC(=O)CCCC[C@@H]2SC[C@@H]3NC(=O)N[C@@H]32)C(N)=O)NC(=O)[C@H](CO)NC(=O)[C@H](Cc2c[nH]c3ccccc23)NC(=O)CNC(=O)[C@H](CC(C)C)NC(=O)[C@H](Cc2c[nH]c3ccccc23)NC(=O)[C@H](CO)NC(=O)CNC(=O)[C@H](CCC(=O)O)NC1=O)C(C)C
notes: Cyclic peptide, biotinylated
pEC50 [1]: > 8 pec50

B2: [111In]In-DPI-4501: 111In-DOTA-Q-[C(3MeBn)-EPD-Aph(SaPr)-LTWSC]-NH2 (peptide)
peptide: {DOTA}-QCE[dP]D[Aph(SaPr)″]LTWSC-NH2
modifications: linker 2-11 via mXylylene; also: 111In complexed in DOTA
notes: also called 111In-3BP-4501; In-111-labeled DPI-4501
pKd [2]: ≥ 9

B3: 3BP-4503 (peptide)
peptide: {DOTA}-ECE[dP]D[Phe(3-NHCO(CH2)3SO2NH2)]LTW[Dap]C-NH2
modifications: lactam 1-10; linker 2-11 via mXylylene
notes: also called DPI-4503
pKD [3]: > 8 pkd | pKD [4]: < 6 pkd | pKD [5]: < 6 pkd | t1/2 (half-life of the complex, SPR) [6]: > 0.25 h | pKD [7]: < 6 pkd | pIC50 [8]: > 8 pic50 | pKD [9]: > 8 pkd

B4: 3BP-2776: H-Met-Val-Tyr-[Cys(3MeBn)-Glu-Gly-Asp-Trp-Leu-Thr-Trp-Gln-Cys]-Ttds-Lys(Bio)-NH2 (peptide)
peptide: H-MVYCEGDWLTWQC[Ttds(4)]K(Biotin)-NH2
modifications: linker 4-13 via mXylylene
SMILES: CSCC[C@H](N)C(=O)N[C@H](C(=O)N[C@@H](Cc1ccc(O)cc1)C(=O)N[C@H]1CSCc2cccc(c2)CSC[C@@H](C(=O)NCCCOCCOCCOCCCNC(=O)CCC(=O)N[C@@H](CCCCNC(=O)CCCC[C@@H]2SC[C@@H]3NC(=O)N[C@@H]32)C(N)=O)NC(=O)[C@H](CCC(N)=O)NC(=O)[C@H](Cc2c[nH]c3ccccc23)NC(=O)[C@H]([C@@H](C)O)NC(=O)[C@H](CC(C)C)NC(=O)[C@H](Cc2c[nH]c3ccccc23)NC(=O)[C@H](CC(=O)O)NC(=O)CNC(=O)[C@H](CCC(=O)O)NC1=O)C(C)C
notes: Cyclic peptide, biotinylated
pEC50 [1]: > 8 pec50

B5: 3BP-4415 (peptide)
peptide: {DOTA-APAc}-VYCE[dP]D[Af3(Btda)]LTWSC-NH2
modifications: linker 3-12 via mXylylene; reading uncertain
pIC50 [10]: 6.1 to 7 pic50

B6: 3BP-2778: H-Met-Arg-[Cys(3MeBn)-Glu-Ile-Trp-Val-Asp-Gly-Trp-Val-Asp-Cys]-Ttds-Lys(Bio)-NH2 (peptide)
peptide: H-MRCEIWVDGWVDC[Ttds(4)]K(Biotin)-NH2
modifications: linker 3-13 via mXylylene
SMILES: CC[C@H](C)[C@@H]1NC(=O)[C@H](CCC(=O)O)NC(=O)[C@@H](NC(=O)[C@H](CCCNC(=N)N)NC(=O)[C@@H](N)CCSC)CSCc2cccc(c2)CSC[C@@H](C(=O)NCCCOCCOCCOCCCNC(=O)CCC(=O)N[C@@H](CCCCNC(=O)CCCC[C@@H]2SC[C@@H]3NC(=O)N[C@@H]32)C(N)=O)NC(=O)[C@H](CC(=O)O)NC(=O)[C@H](C(C)C)NC(=O)[C@H](Cc2c[nH]c3ccccc23)NC(=O)CNC(=O)[C@H](CC(=O)O)NC(=O)[C@H](C(C)C)NC(=O)[C@H](Cc2c[nH]c3ccccc23)NC1=O
notes: Cyclic peptide, biotinylated
pEC50 [1]: > 8 pec50

B7: natLu-DPI-4452 (LuDOTA-PPAc-Gln-[Cys(3MeBn)-Glu-pro-Asp-Af3(Cpsu)-Leu-Thr-Trp-Ser-Cys]-NH2) (peptide)
peptide: {DOTA-PPAc(3)}-QCE[dP]D[Phe(3-NHCO(CH2)3SO2NH2)]LTWSC-NH2
modifications: linker 2-11 via mXylylene; also: natLu chelated by N-terminal DOTA
notes: Lutetium complex of DPI-4452; also called 3BP-4555
t1/2 (dissociation half-life) [11]: 2.05 h

B8: 3BP-4174 (peptide)
peptide: {DOTA-APAc″}-VDCE[dP]DWLTW[Dap]C-NH2
modifications: lactam 2-11; linker 3-12 via mXylylene
pKD [3]: > 8 pkd | pKD [4]: < 6 pkd | pKD [5]: < 6 pkd | t1/2 (half-life of the complex, SPR) [6]: > 0.25 h | pKD [7]: < 6 pkd | pKD [9]: > 8 pkd

B9: 3BP-2775: H-Met-Gln-[Cys(3MeBn)-Glu-Ile-Trp-Val-Asp-Gly-Trp-Val-Thr-Cys]-Ttds-Lys(Bio)-NH2 (peptide)
peptide: H-MQCEIWVDGWVTC[Ttds(4)]K(Biotin)-NH2
modifications: linker 3-13 via mXylylene
SMILES: CC[C@H](C)[C@@H]1NC(=O)[C@H](CCC(=O)O)NC(=O)[C@@H](NC(=O)[C@H](CCC(N)=O)NC(=O)[C@@H](N)CCSC)CSCc2cccc(c2)CSC[C@@H](C(=O)NCCCOCCOCCOCCCNC(=O)CCC(=O)N[C@@H](CCCCNC(=O)CCCC[C@@H]2SC[C@@H]3NC(=O)N[C@@H]32)C(N)=O)NC(=O)[C@H]([C@@H](C)O)NC(=O)[C@H](C(C)C)NC(=O)[C@H](Cc2c[nH]c3ccccc23)NC(=O)CNC(=O)[C@H](CC(=O)O)NC(=O)[C@H](C(C)C)NC(=O)[C@H](Cc2c[nH]c3ccccc23)NC1=O
notes: Cyclic peptide, biotinylated
pEC50 [12]: 7.1 to 8 pec50
